{"source": "the DeepSol protein solubility set"}
{"assay": "soluble on expression in E. coli; label from the status in PepcDB or PDB records"}
{"sequence": "MGSDKIHHHHHHMDGINTLRYSDLFLAMYFDGGKSCLHRNHSHVLVYVYSGEMVIDEKGQITRLHKGECAFIRKDFSVQMTKQAWNGEQFKAIFLMFTMKFLRDFYSKLDRNTLPKDAKRDQVSLYKLPSNRPDIVSLFESMTPYFNSKIQPTDELLQLKMVEGVYVLLNTDKNLYASIFDFTDPWKIDILEFMERNYMNDISMEEIANYTGRSLSTFKRDFKKCSALSPREWLIRRRLEAAHGLIRKGGRKVSEICFEVGFKNLSHFSKIYKIAYGVPPTEDI", "soluble on expression in E. coli": "not soluble"}
{"sequence": "MGSDKIHHHHHHMDIKQIRYFIAIVENHFNLSQAAELLYVSQPTLSMMINDFEKRENVKLFKRKRGRIIGLTYLGDNYYKDAQKVLSLYDDMFLKLHDHSKGLKGSINIGIPPLILSVVFSEVMPKLILENPGIQFNVKEIGAYQLKNELLVGNVDVAVLLSPTGIADNLVETYEIQRSELSVCLSPRHRLASKKVIQWEDLTDEQLALFDPSFMVHHLVLEACERHQVRPNIILTSSSWDFMLNSTKINHNVLTICPKPITELYQLKDIKCIPMERPISWRVVLTRLRKKSYSEIEAYIMDDLLQSFFK", "soluble on expression in E. coli": "not soluble"}
{"sequence": "MGSDKIHHHHHHMDINADFSERVMVQSADLDWVASPMPGVDRRMLDRIGGEVARATSIVRYAPGSNFSAHTHTGGEEFVVLDGVFQDEHGDYPAGTYVRNPPTTSHTPGSDEGCTIFVKLWQFDMDDRTQFRRDMAAGGDRSVLHEDAFEIVTYHRLAPGAALEDPADGGAELLVLAGSLTEGGDTLITGGWLRLPESSTMHAVAGSEGATVWMKTGHLPHAKPPAVGRTR", "soluble on expression in E. coli": "not soluble"}
{"sequence": "MGSDKIHHHHHHMDITPFLNRTLDIPLYQQLYRYFKENMHRGRIQKGMKLPSKRLLANQLSISQTTVERAYEQLAAEGYIVSKPRSGWFADYHDSDFAYDRMPSTTPIQQEAEENKQWIDFHYGNVDSSYFPFSAWRKSMVNSLDQYGHELYRPGHVLGEFELRTLIAEYLYQSRGVHCGPEQVIIGAGNPILLQILCQVFEPNISIGYEDPGYPRARKIFEANRMNIVPIPVDDEGICIQKIKEQQPNLVYVTPSHQFTLGTIMTINRRIQLLKWAAENQSFIIEDDYDGEFRYTGQPVPSLQGLDQHNRVIYMGTFSKSLLPSLRISYMILPSPLLKKGHEITSLYKQTVSCHSQLTLAEFIKNGEWQKHINRMRKLYRKKRAIVLEAVQRELGEHVRIRGENSGLRILLDVYLPFGEKELIEKAKKHGVKIYPVSLSYQHHPPTKTVSLGFAGVSESDIREGIKKLKAAWKI", "soluble on expression in E. coli": "not soluble"}
{"sequence": "MGSDKIHHHHHHMDIYRHAQVMMNAAQAAHDLVDHLSIQPRGVVKVSVPVDIAQNLLPKILPAFLKKYPEIRLQLIVSNRRVDVINEGIDIALRVRSKLDDDPSLVLRQFALIEQSLFASQAYLNEFGNIKSPDELSDHRILSLSEEHLDQQFILHGPDNQLKKVKVSPTIMGTNIYMLAQLASQNCGIALLPDTAAEDFVKSGQLVQILPDWKAAHGIFHAVYPSRRGLLPAVRVFIDYLVEHLSEHP", "soluble on expression in E. coli": "not soluble"}
{"sequence": "MGSDKIHHHHHHMDKILNLDSVDLYNKLYGLETLNPLVSVIDLNKATSSVDLIRFNYGIYALYLKLEKACDIKYGRQTYDYQEGTIVCFAPGQTAETNPTTDKVQVNAHGILFHPDLLRGTSLGKNIKKYTFFSYEVNEALHLSEEERSIVMDCLKIIRMELEHGVDKHSKTLLVNHIELLLNYCMRFYERQFITRGKTNRDVLTRFENLLDEYFESTLAEQDGLPTVKYFADKLCLSSNYFGDMFKKETGKSPQEYIQEKVIELAKERISGTADTVSQIAYSLGFQYPQHSCRLFKKRVGYTPSEYRAQIGLSTNL", "soluble on expression in E. coli": "not soluble"}
{"sequence": "MGSDKIHHHHHHMDKLLYIAMSGAKQNMQALSINANNLANAKTTGFKADLAQARSMQAFGEGLPSRVFSMTERASQNFDSGSILHTGRSLDMAIEGEGFFAVQAEDGQEAYTRGGHFRLTETGALETNDGELVIGENGPITLPLPINNIQISRDGTIMVQPAGAPSSVQEEVGRIKLVNPDTRLVDKGNDGLFRAKNGGQLIADVNVNVLGGALESSNVNPINEMTDMIALQRQFEMQLKMMKTAEEIDSSASSLLRAF", "soluble on expression in E. coli": "not soluble"}
{"sequence": "MGSDKIHHHHHHMDLFSASFNPHQIAPLAERMRPRTLDDYIGQSEIIGKGKLLRRAIEADRVTSLILYGPPGTGKTSLAQVIANTTSSGFVRINAVAAGVKEIREIIQTATEQLHLYGKKTLVFCDEVHRFNKGQQDALLPAVENGTITFIGATTENPFFELNSALLSRSTLFRLQPLTAEDIRSGLAQALADKERGLGNYSVSIDPEAWEHWLNFANGDLRRALNALELAVLTTPPEQGVRRITLSVAEESIQQRAMRFDKNGDNHYDIVSAFIKSMRGSDPDAALYWLAVLLESGEDPRFIVRRIIVHASEDVGLADPMVMLQAHAAANALEWVGLPEARIPIAQAVLAIATAPKSNSTIMAIDRATGYVRSHPTGQVPAHLRDANYPGAKKMGHGKNYLYPHDYPGHWVEQGYLPQEVQGENFFTPSGTGQDRDNRGKPQVIPPSE", "soluble on expression in E. coli": "not soluble"}
{"sequence": "MGSDKIHHHHHHMDNLIITPNYVTEFNCVGPACEDSCCKNWTVYFDKKSYKHTISNPAFADLAKIAFVEIKESKENWASIKLDEQGACPFLTQEELCKIHQVGGEAALSYTCKTYPKKDTLVGKDKYQSLSLSCPEAARLVLFDPNAFQFQSHNGGNKKPAKPSPVWLEKSYQYSLDLLINANLDWELALLAIGLLIKTAEDASQYQIPIEELDKRHDQLKRFAESGLMAQQFEKTPYASQLQANLFVTIHSELCKINPRSGKARFGELNLAIEQACNEDNHYSIDLINQAWNQVAQPALKENPDVFERYILYYLFHNHFPGPVTQTPSQSFILLAIDCFMIRCYLSAMALKNNGINQREIILCFQVYQVIRQHRSSFVARLEELVEECGLNSISAVMTLLKTN", "soluble on expression in E. coli": "not soluble"}
{"sequence": "MGSDKIHHHHHHMDPLSSSDPARLASEQRRLRLQVLGLNTVEAEATFDRIARLAASFTQSPLAMVNFINDERQMFRGMYVPSGSPDDKVSPESGGIAFDLSNLSREAPGDYGFCPHVVAQGSQLALDDVFDYPRFKGNPLVNDLGVRSYLGTPLRDNTGMILGTVCVADMKPRTWDRGLREGMQELTETLLSDFKLRDSLLAQQQELFAVFDGAPFPIMLTEGPDHLLRYANGKQGSAFGLVPQFSPGRHVLPGLEAIGVFGAMDDAFHTGQAATLARASIQTYDSHTLQDFNFLCTPVRTSPAAPISGVLTVAMNTTGQDFAGSEQRAFAANVQERFERLGAGGLPGGMPGQRAESAGYRG", "soluble on expression in E. coli": "not soluble"}
{"sequence": "MGSDKIHHHHHHMDRIIEKLDHGWWVVSHEQKLWLPKGELPYGEAANFDLVGQRALQIGEWQGEPVWLVQQQRRHDMGSVRQVIDLDVGLFQLAGRGVQLAEFYRSHKYCGYCGHEMYPSKTEWAMLCSHCRERYYPQIAPCIIVAIRRDDSILLAQHTRHRNGVHTVLAGFVEVGETLEQAVAREVMEESGIKVKNLRYVTSQPWPFPQSLMTAFMAEYDSGDIVIDPKELLEANWYRYDDLPLLPPPGTVARRLIEDTVAMCRAEYE", "soluble on expression in E. coli": "soluble"}
{"sequence": "MGSDKIHHHHHHMDSNIDVEILSILSEASAPVGAKIIADSLKDRGYDIGERAVRYHLKVLDENSLTKKLGYSGREITEKGIEELEKANISFRIGSVFSQVIEKLYLSDFPSKVLINTAKFEGDYKTIKEMVLRSFEAGYSVGDYLNIKKKGNTVSVETLCSITFDNFLLKNGIIPTPEYGGIVKFEDYEPVNFEGVIDFKSSSIDPLVAFIMQGKTDVIGVIENGEGLVPANFRVIPKSSEKQFETILKKDMLNSVLAYGTENVLGMNLNPEQIGVVLVGGLTPLCVPHESGYTADISAATQLKDISSMEKKTKGFLEAKKKKGKFKVTPVLSKMLSKMQTINYDIEDKKGNVVVNTAKIPIEYKEEAINALKDSYENKLAISDRLKVECDDKFLNAYTICSLTVDGVFLKNKIPVIPYYGGILEVKADKKRFIEAIDYEGTSLDPHEVFFNKADGKNYILAGIRKVPMSASEKLIELNEKLGWNSIIEIGRPNNDICGVRVEKCMFGITTIGGTNPFANIRKNNIPVEMKTLHKSIDYSELTHYDDI", "soluble on expression in E. coli": "not soluble"}
